US20150010591A1 (UNIVERSITY OF BRITISH COLUMBIA, published 2015)

Key:
Experiment in all cases: peptide eluted from immunoaffinity-purified MHC class II of infected C57BL/6 BM-DCs, LC-MS/MS
[1] = biological target: T1, […], peptide of C. trachomatis Predicted D-Amino Acid Dehydrogenase (CT375) (Chlamydia trachomatis)
T1 construct: also called CT375 peptide

[2] = biological target: T2, …, peptide of C. trachomatis Muramidase (invasin repeat family) (CT759) (Chlamydia trachomatis)
T2 construct: also called NlpD peptide

[3] = biological target: T3, …, peptide of C. trachomatis Hypothetical protein CT472 (Chlamydia trachomatis)
T3 construct: also called CT472 peptide

[4] = biological target: T4, IPFAKPDANLSAED, peptide of C. trachomatis Hypothetical protein CT619 (Chlamydia trachomatis)
T4 construct: also called CT619 peptide

[5] = biological target: T5, …, peptide of C. trachomatis FHA domain; homology to adenylate cyclase (CT664) (Chlamydia trachomatis)
T5 construct: also called CT664 peptide

[6] = biological target: T6, …, peptide of C. trachomatis Hypothetical protein CT144 (Chlamydia trachomatis)
T6 construct: also called CT144 peptide

[7] = biological target: T7, …, peptide of C. trachomatis CHLPN 76kDa Homolog (CT622) (Chlamydia trachomatis)
T7 construct: also called CT622 peptide

[8] = biological target: T8, …, peptide of C. trachomatis Hypothetical protein CT143 (Chlamydia trachomatis)
T8 construct: also called CT143 peptide

[9] = biological target: T9, …, peptide of C. trachomatis Hypothetical protein CT289 (Chlamydia trachomatis)
T9 construct: also called CT289 peptide

[10] = biological target: T10, …, peptide of C. trachomatis Hypothetical protein CT837 (Chlamydia trachomatis)
T10 construct: also called CT837 peptide

[11] = biological target: T11, …, peptide of C. trachomatis Dihydrolipoamide acetyltransferase (CT247) (Chlamydia trachomatis)
T11 construct: also called PdhC peptide

[12] = biological target: T12, …, peptide of C. trachomatis Sigma Regulatory factor (CT424) (Chlamydia trachomatis)
T12 construct: also called RsbV peptide

Measured: binding result

B1: MHC class II (I-Ab) molecules of bone marrow derived dendritic cells from C57BL/6 mice (receptor)
MHC II alpha: EDDIEADHVGTYGISVYQSPGDIGQYTFEFDGDELFYVDLDKKETVWMLPEFGQLASFDPQGGLQNIAVVKHNLGVLTKRSNSTPATNEAPQATVFPKSPVLLGQPNTLICFVDNIFPPVINITWLRNSKSVADGVYETSFFVNRDYSFHKLSYLTFIPSDDDIYDCKVEHWGLEEPVLKHWEPEIPAPMSELTETVVCALGLSVGLVGIVVGTIFIIQGLRSGGTSRHPGPL
MHC II beta: GDSERHFVYQFMGECYFTNGTQRIRYVTRYIYNREEYVRYDSDVGEHRAVTELGRPDAEYWNSQPEILERTRAELDTVCRHNYEGPETHTSLRRLEQPNVVISLSRTEALNHHNTLVCSVTDFYPAKIKVRWFRNGQEETVGVSSTQLIRNGDWTFQVLVMLEMTPRRGEVYTCHVEHPSLKSPITVEWRAQSESAWSKMLSGIGGCVLGVIFLGLGLFIRHRSQKGPRGPPPAGLLQ
notes: whole, on cells; also called MHC class II molecules
binds: all assays above
